# Results published in patent publication US20100092465A1, “TREATMENT OF GRAFT-VERSUS-HOST DISEASE” (priority 2006, published 2010).
# How the values were obtained:
# [1] = tested on: P815 cells; experiment: CTL-specific lysis assay with splenocytes of GVHD mice; type: cell-based, mouse; settings: splenocytes of treated animals versus PBS; calcein-labeled P815 targets
# Experimental: Efficacy of IL-27 antagonists was assayed in a mouse model of acute graft-vs-host disease (Durie et al., J. Clin. Invest. 94:1333-1338, 1994). Parental mice (C57BL/6; n=12) were euthanized, and their spleens were collected. The pooled spleens were smashed using two glass slides to dissociate splenic cells. Lysis buffer was added to the splenocyte suspension to remove red blood cells. The cells were washed in RPMI 1640 (10% FBS) medium and resuspended in an appropriate amount of PBS to make a cell concentration of 300 million cells/ml. Protein treatments were administered by intraperitoneal injection every other day beginning on day-1 and continuing until day 15. Dexamethasone (DEX) was administered by injection daily on days 0 through 6. […] Mice were monitored 3 times a week for changes in body weight and any signs of moribundity. […] Spleens were collected, and a CTL-specific lysis assay using P815 cells was performed as a quantitative measurement of acute GVHD. […]
# For CTL assay, P815 cells (a tumor cell line from mice with the same MHC class as DBA2) were labeled with calcein, then splenocytes from each experimental animal were added to the calcein-labeled P815 cells at effector (splenocytes):target (P815) ratios of 100:1, 33:1, and 10:1. Four hours after incubation at 37° C., supernatants were collected and fluorescence was measured (485 nm/535 nm).
# [2] = Pharmacokinetics of soluble receptors in female C57B1/6 mice; type: in vivo, mouse; settings: for terminal / circulatory half-life, comparison in words: human Fc5 fusion versus mouse Fc1 fusion
# Experimental: Studies were performed to evaluate the pharmacokinetics of the mouse (IL-27RAm(mFc1)) and human (IL-27RA-Fc5) soluble receptors in female C57B1/6 mice.
# Serum was generated from each sample and analyzed by a qualified enzyme-linked immunosorbant assay (ELISA). The resulting mean serum concentration versus time profiles were then subjected to noncompartmental pharmacokinetic analyses. The following pharmacokinetic parameters were calculated: C0 and Cmax (extrapolated concentration at time zero and maximum serum concentration, respectively), Tmax (time to achieve maximum concentration), t1/2 λz (terminal half-life), AUC0-t (area under the concentration versus time curve from time zero to the last measurable time point), AUCINF (area under the concentration versus time curve extrapolated to infinity), Cl or Cl/F (clearance or clearance divided by bioavailable fraction, respectively), VSS or VZ/F (steady state volume of distribution or volume of distribution divided by the bioavailable fraction, respectively), and F (bioavailable fraction).
substance,measurement,setting,value
"human IL-27RA-Fc5: human IL27RA extracellular domain (amino acids 1 to 512 of SEQ ID NO:5) fused to Fc5, effector minus human gamma1 Fc; SEQ ID NO:3",CTL activity,[1],reduced CTL activity compared to PBS
same,AUC0-120,"[2]; IP, 100 μg",1310 µg·h/mL
same,AUCINF,"[2]; IP, 100 μg",1380 µg·h/mL
same,Cl/F,"[2]; IP, 100 μg",0.0725 mL/h
same,Tmax,"[2]; IP, 100 μg",3 h
same,t1/2 λz,"[2]; IP, 100 μg",28.3 h
same,Cmax,"[2]; IP, 100 μg, serum",35200 ng/mL
same,AUC0-120,"[2]; IV, 100 μg",1400 µg·h/mL
same,AUCINF,"[2]; IV, 100 μg",1510 µg·h/mL
same,Cl,"[2]; IV, 100 μg",0.0664 mL/h
same,Vss,"[2]; IV, 100 μg",2.54 mL
same,t1/2 λz,"[2]; IV, 100 μg",34.9 h
same,Co,"[2]; IV, 100 μg, serum",122 µg/mL
same,AUC0-120,"[2]; SC, 100 μg",1130 µg·h/mL
same,AUCINF,"[2]; SC, 100 μg",1210 µg·h/mL
same,Cl/F,"[2]; SC, 100 μg",0.0828 mL/h
same,Tmax,"[2]; SC, 100 μg",6 h
same,t1/2 λz,"[2]; SC, 100 μg",29.3 h
same,Cmax,"[2]; SC, 100 μg, serum",21000 ng/mL
same,"terminal / circulatory half-life, comparison in words",[2]; listed as fusion protein comprising an Fc fragment that had been engineered to remove effe,markedly improved circulatory half-life
same,"terminal / circulatory half-life, comparison in words",[2]; listed as human Fc5 fusion protein,much longer terminal half-life
